The target of one experiment is T1, pSer412Cys (74AXY) (human).
T1 peptide: NV[pS]STGSC
The experiment is described as follows: peptide-coated ELISA (1 µg/ml peptide 74AXY coat, anti-human IgG-HRP, ABTS, OD405). How it is done:
(§1) Binding specificity of the high affinity antibodies described herein was assessed with various tau peptides by a peptide-coated ELISA. Plates were coated with 50 μl of 1 μg/ml peptides 69AXY, 70AXY, 74AXY, 84AWK, 25AWF, or 24AWF in PBS for overnight at 4° C. On the next day, the plates were washed 3 times, blocked with 200 μl of superblock for 1 hr at room temperature, then washed 3 times again. Antibodies were diluted at 1:5 serial dilution in ELISA buffer starting from 10 μg/ml. The plates were incubated with 50 μl of serially diluted antibodies at room temperature for 1 hr and washed 3 times.

The target of another experiment is T2, pS396/400/404GC (84AWK) (human, phosphoserines at 396, 400 and 404 of tau, printed GCRENAKAKTDHGAEIVYK(pS)PVV(pS)GDT(pS)PRHL).
T2 construct: also called T-pS396/400/404GC
T2 peptide: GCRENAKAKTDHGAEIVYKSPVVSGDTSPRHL
The experiment is described as follows: peptide-coated ELISA (1 µg/ml peptide 84AWK coat, anti-human IgG-HRP, ABTS, OD405). How it is done: as §1

In the next experiment the target is T3, pT212/pS214GC (69AXY) (human, phosphothreonine 212 and phosphoserine 214 of tau, printed GCGSPGTPGSRSR(pT)P(pS)LPTPPTREPK).
T3 construct: also called T-pT212pS214GC
T3 peptide: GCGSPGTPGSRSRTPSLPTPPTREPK
The experiment is described as follows: peptide-coated ELISA (1 µg/ml peptide 69AXY coat, anti-human IgG-HRP, ABTS, OD405). The method, then: as §1

The target in experiment [1] is cynomolgus monkey (cyno) FcRn (cynomolgus monkey, UniProt Q8SPV9 24-297; Q8SPW0 21-119, limits assumed). The experiment is described as follows: SPR (Biacore), antibody captured by anti-human kappa, FcRn injected, pH 6.0, steady-state fit; pH 6.0. How it is done: (§2) Anti-human kappa antibody was amine coupled to a CMS chip. Each antibody was captured to 200-300 RUs. Binding assays were performed using PBS running buffer containing 0.05% Tween-20, adjusted to either pH 6.0 or 7.4. Titration samples were also prepared using the corresponding pH buffer for the assay. Titrating concentrations (1200 nM top, 6-point, 3-fold dilution series and two zeros) of human or cyno FcRn were injected over the captured mAbs. Each sample injection was followed by two 30-second injections of 10 mM glycine, pH 1.5 and a 12-second injection of 10 mM NaOH to regenerate the surface for subsequent antibody capture and injection. All assays were run on Biacore T200 and/or 4000 instruments (GE Healthcare) and the data were fit to a steady-state approximation model using Biaevaluation software. Affinity at pH 6.0 was calculated as equivalent to concentration at half maximal binding signal in the steady-state approximation (TABLE 9).

Another experiment concerns the target human FcRn (human, UniProt P55899 24-297; P61769 21-119, limits assumed). Described as above. How it is done:
as §2

Experiment [2] concerns the target T4, tau species in CSF of African Green Monkeys (African Green Monkey).
T4 construct: also called Fresh African Green Monkey (AGM) CSF
The experiment is described as follows: competitive ELISA, fresh AGM CSF (75 µl of neat CSF). The method, then: (§3) Binding affinities of various anti-tau-pS413 antibodies described herein for endogenous tau species were determined in brain homogenates and CSF samples from AD patients and preclinical models. Briefly, samples were pre-incubated with different concentrations of various anti-tau-pS413 antibodies, or respective isotype controls. Following a one-hour pre-incubation period, the antigen-antibody (Ag-Ab) mixture was added to plates pre-coated with a total tau capture antibody (Innotest ELISA kit).

For experiment [3], the target named is T5, tau species in brain homogenates from mutant tau mice (rTg(tauP301L)4510), sarkosyl insoluble tau seeds.
T5 construct: also called Tau mutant mice brain; SI Tau seeds
The experiment is described as follows: competitive ELISA, tau mutant mice brain SI tau seeds (4 ng protein). The method, then:
as §3
Tissue homogenates were prepared using 1% sarkosyl buffer with several high-speed centrifugation steps to enrich for insoluble proteins including tau.

Experiment [4] has as its target T6, phosphorylated tau protein monomer (35 AWM).
T6 construct: also called recombinant phosphorylated tau protein monomer
The experiment is described as follows: competitive ELISA, phosphorylated tau protein monomer 35 AWM (1 ng).

Residue numbers refer to the chain shown, from its start. In names and notes the source's numbering stands. Non-standard residues stand in square brackets, D forms with d. No end group written: not given here. pS = N[C@@H](COP(=O)(O)O)C(=O)O

5 molecules from patent US20210403541A1 (Merck Sharp & Dohme, published 2021) can be followed below.

B1: V5-AFM-hIgG4-S228P (antibody, V domains shown)
VH: EVQLVESGGGLVQPGGSLRLSCAASGFTFSSFALNWVRQAPGKGLEWVGHIRSKTNNYVTFYAASVKGRFTVSRDDSQNTAYLQMNSLKTEDTATYYCVRRGPRDSWFGYWGQGTLVTVSS
VL: DIVMTQSPLSLPVTLGEPASISCRSSQKIVHRNANTYLEWYLQKPGQSPQLLIYTVSNRFSGVPDRFSGSGSGTDFTLKISRVEAEDLGVYYCFQGSYLPLTFGGGTKVEIK
notes: also called V5-AFM-IgG4-S228P
As to B1, the binding result in the experiment with pSer412Cys (74AXY), with pS396/400/404GC (84AWK) and with pT212/pS214GC (69AXY) was “no binding (tested: 10 µg/ml)” throughout.

B2: V8-AFM-hIgG1-LALA (antibody)
heavy: not shown
light: DIVMTQSPLSLPVTLGEPASISCRSSQKIVHRNANTYLEWYLQKPGQSPQLLIYTVSNRFSGVPDRFSGSGSGTDFTLKISRVEAEDLGVYYCFQGSYLPLTFGGGTKVEIKRTVAAPSVFIFPPSDEQLKSGTASVVCLLNNFYPREAKVQWKVDNALQSGNSQESVTEQDSKDSTYSLSSTLTLSKADYEKHKVYACEVTHQGLSSPVTKSFNRGEC
notes: Human IgG1 L234A L235A/kappa; also called V8-AFM-IgG1-LALA
In the case of B2, the binding result with pSer412Cys (74AXY), with pS396/400/404GC (84AWK) and with pT212/pS214GC (69AXY) was “no binding (tested: 10 µg/ml)” each time. Moreover, in experiment [1], the “Cyno FcRn fold change (relative to HmzTa1505-hIgG4-S228P)” value turned out to be 1.6 fold. The Kd in experiment [1] was 160 nM; in the experiment with human FcRn, 230 nM. In addition, the “Human FcRn fold change (relative to HmzTa1505-hIgG4-S228P)” value with human FcRn stood at 1 fold.

B3: V8-AFM-hIgG4-S228P (antibody)
heavy: not shown
light: B2 light
notes: also called V8-AFM-IgG4-S228P
On to B3, for which the binding result with pSer412Cys (74AXY), in the experiment with pS396/400/404GC (84AWK) and in the experiment with pT212/pS214GC (69AXY) was “no binding (tested: 10 µg/ml)” throughout. Also, the “Cyno FcRn fold change (relative to HmzTa1505-hIgG4-S228P)” value in experiment [1] was determined as 1 fold. The Kd in experiment [1] turned out to be 260 nM; with human FcRn, 210 nM. Further, the “Human FcRn fold change (relative to HmzTa1505-hIgG4-S228P)” value with human FcRn was found to be 1 fold.

B4: V8-AFM-hIgG1-LALA-YTE (antibody)
heavy: EVQLVESGGGLVQPGGSLRLSCAASGFTFSSFALNWVRQAPGKGLEWVGHIRSETNNYVTFYAASVKGRFTVSRDDSQNTAYLQMNSLKTEDTATYYCVRRGPRDSWFGYWGQGTLVTVSSASTKGPSVFPLAPSSKSTSGGTAALGCLVKDYFPEPVTVSWNSGALTSGVHTFPAVLQSSGLYSLSSVVTVPSSSLGTQTYICNVNHKPSNTKVDKKVEPKSCDKTHTCPPCPAPEAAGGPSVFLFPPKPKDTLYITREPEVTCVVVDVSHEDPEVKFNWYVDGVEVHNAKTKPREEQYNSTYRVVSVLTVLHQDWLNGKEYKCKVSNKALPAPIEKTISKAKGQPREPQVYTLPPSRDELTKNQVSLTCLVKGFYPSDIAVEWESNGQPENNYKTTPPVLDSDGSFFLYSKLTVDKSRWQQGNVFSCSVMHEALHNHYTQKSLSLSPGK
light: B2 light
notes: Human IgG1 L234A L235A YTE/kappa; also called V8-AFM-IgG1-LALA-YTE
Turning to B4, the EC50 in experiment [2] amounted to 0.008 nM; in experiment [3], 0.004 nM; in experiment [4], 0.055 nM. For the same molecule, the binding result with pSer412Cys (74AXY), in the experiment with pS396/400/404GC (84AWK) and with pT212/pS214GC (69AXY) was “no binding (tested: 10 µg/ml)” each time. Moreover, the “Cyno FcRn fold change (relative to HmzTa1505-hIgG4-S228P)” value in experiment [1] is 11 fold. For the same molecule, the Kd in experiment [1] was determined as 24 nM; with human FcRn, 34 nM. For the same molecule, in the experiment with human FcRn, the “Human FcRn fold change (relative to HmzTa1505-hIgG4-S228P)” value was determined as 6.5 fold.

B5: HmzTa1505-hIgG4-S228P (antibody)
heavy: not shown
light: B2 light with K28N, R32S, Y98H
Consider B5, for which the EC50 in experiment [2] was 2.08 nM; in experiment [3], 0.67 nM; in experiment [4], 6.73 nM. Moreover, in experiment [1], the “Cyno FcRn fold change (relative to HmzTa1505-hIgG4-S228P)” value worked out at 1 fold. Moreover, the Kd in experiment [1] was 260 nM; in the experiment with human FcRn, 220 nM. Moreover, the “Human FcRn fold change (relative to HmzTa1505-hIgG4-S228P)” value with human FcRn stood at 1 fold.
